# Columns and labels:
# Assay in all cases: SEC; analytical gel filtration of affinity-purified 6xHis-tagged VP3s, Superdex-200 5/150 calibrated with catalase, serum albumin, ovoalbumine and chymotrypsinogen A; 20 mM Tris-HCl pH 7.5, 150 mM NaCl, 4°C, 0.5 ml/min
# [1] = target: 6xHis-tagged IBDV VP3 Patch1 mutant (K99D, R102D, K105D, K106D) (Infectious bursal disease virus (IBDV))
# [2] = target: 6xHis-tagged IBDV VP3 Patch2 mutant (R159D, R168D, H198D, R200D) (Infectious bursal disease virus (IBDV))
# [3] = target: the molecule itself
molecule,measurement,setting,value
"6xHis-tagged IBDV VP3 Patch1 mutant (K99D, R102D, K105D, K106D) (natural protein)",stoichiometry N,[1],2
"6xHis-tagged IBDV VP3 Patch2 mutant (R159D, R168D, H198D, R200D) (natural protein)",stoichiometry N,[2],2
"6xHis-tagged full-length IBDV VP3 (wild type) (natural protein, VP3 of Infectious bursal disease virus (IBDV), the cut product of the viral polyprotein (pVP2-VP4-VP3); numbers count on: the VP3 polypeptide itself (C-terminal region printed as 222-258), not the polyprotein; also called VP3 WT; wild type IBDV VP3) ASEFKETPELESAVRAMEAAANVDPLFQSALSVFMWLEENGIVTDMANFALSDPNAHRMRNFLANAPQAGSKSQRAKYGTAGYGVEARGPTPEEAQREKDTRISKKMETMGIYFATPEWVALNGHRGPSPGQVKYWQNKREIPDPNEDYLDYVHAEKSRLASEEQILRAATSIYGAPGQAEPPQAFIDEVAKVYEINHGRGPNQEQMKDLLLTAMEMKHRNPRRALPKPKPKPNAPTQRPPGRLGRWIRTVSDEDLE",stoichiometry N,[3],2

# From PMC3458112, “The VP3 Factor from Viruses of Birnaviridae Family Suppresses RNA Silencing by Binding Both Long and Small RNA Duplexes” (PLoS ONE, 2012)
